Experimental data taken from patent US20200399369A1 (Sanofi, published 2020).

T1: Human CD3 (human)
T1 chain: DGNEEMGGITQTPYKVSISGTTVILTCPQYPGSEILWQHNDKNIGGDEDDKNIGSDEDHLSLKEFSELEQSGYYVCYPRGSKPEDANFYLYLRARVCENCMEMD

B1: CD38hhy992/CD28sup x CD3mid_ENLQ DKTHT IgG4 FALA (other)
light 1: DIVMTQTPLSLSVTPGQPASISCKSSQSLVHENLQTYLSWYLQKPGQSPQSLIYKVSNRFSGVPDRFSGSGSGTDFTLKISRVEAEDVGVYYCGQGTQYPFTFGSGTKVEIKDKTHTDIQMTQSPSSLSASVGDRVTITCQASQNIYVWLNWYQQKPGKAPKLLIYKASNLHTGVPSRFSGSGSGTDFTLTISSLQPEDIATYYCQQGQTYPYTFGQGTKLEIKDKTHTRTVAAPSVFIFPPSDEQLKSGTASVVCLLNNFYPREAKVQWKVDNALQSGNSQESVTEQDSKDSTYSLSSTLTLSKADYEKHKVYACEVTHQGLSSPVTKSFNRGEC
heavy 1: QVQLVQSGAEVVKPGASVKVSCKASGYTFTSYYIHWVRQAPGQGLEWIGSIYPGNVNTNYAQKFQGRATLTVDTSISTAYMELSRLRSDDTAVYYCTRSHYGLDWNFDVWGKGTTVTVSSDKTHTQVQLVESGGGVVQPGRSLRLSCAASGFTFTKAWMHWVRQAPGKQLEWVAQIKDKSNSYATYYADSVKGRFTISRDDSKNTLYLQMNSLRAEDTAVYYCRGVYYALSPFDYWGQGTLVTVSSDKTHTASTKGPSVFPLAPCSRSTSESTAALGCLVKDYFPEPVTVSWNSGALTSGVHTFPAVLQSSGLYSLSSVVTVPSSSLGTKTYTCNVDHKPSNTKVDKRVESKYGPPCPPCPAPEAAGGPSVFLFPPKPKDTLMISRTPEVTCVVVDVSQEDPEVQFNWYVDGVEVHNAKTKPREEQFNSTYRVVSVLTVLHQDWLNGKEYKCKVSNKGLPSSIEKTISKAKGQPREPQVCTLPPSQEEMTKNQVSLSCAVKGFYPSDIAVEWESNGQPENNYKTTPPVLDSDGSFFLVSKLTVDKSRWQEGNVFSCSVMHEALHNHYTQKSLSLSLG
heavy 2: QVQLVQSGAEVKKPGASVKVSCKVSGYTLTEFSIHWVRQAPGQGLEWMGGFDPEDGETIYAQKFQGRVIMTEDTSTDTAYMEMNSLRSEDTAIYYCTTGRFFDWFWGQGTLVTVSSASTKGPSVFPLAPCSRSTSESTAALGCLVKDYFPEPVTVSWNSGALTSGVHTFPAVLQSSGLYSLSSVVTVPSSSLGTKTYTCNVDHKPSNTKVDKRVESKYGPPCPPCPAPEAAGGPSVFLFPPKPKDTLMISRTPEVTCVVVDVSQEDPEVQFNWYVDGVEVHNAKTKPREEQFNSTYRVVSVLTVLHQDWLNGKEYKCKVSNKGLPSSIEKTISKAKGQPREPQVYTLPPCQEEMTKNQVSLWCLVKGFYPSDIAVEWESNGQPENNYKTTPPVLDSDGSFFLYSKLTVDKSRWQEGNVFSCSVMHEALHNHYTQKSLSLSLG
light 2: EIILTQSPAILSLSPGERATLSCRASQSVISRFLSWYQVKPGLAPRLLIYGASTRATGIPVRFSGSGSGTDFSLTISSLQPEDCAVYYCQQDSNLPITFGQGTRLEIKRTVAAPSVFIFPPSDEQLKSGTASVVCLLNNFYPREAKVQWKVDNALQSGNSQESVTEQDSKDSTYSLSSTLTLSKADYEKHKVYACEVTHQGLSSPVTKSFNRGEC
notes: Trispecific antibody; also called BP # 5′
B2: CD38hyb5739/CD28sup x CD3mid_ENLQ DKTHT IgG4 FALA (other)
light 1: DIVMTQTPLSLSVTPGQPASISCKSSQSLVHENLQTYLSWYLQKPGQSPQSLIYKVSNRFSGVPDRFSGSGSGTDFTLKISRVEAEDVGVYYCGQGTQYPFTFGSGTKVEIKDKTHTDIQMTQSPSSLSASVGDRVTITCQASQNIYVWLNWYQQKPGKAPKLLIYKASNLHTGVPSRFSGSGSGTDFTLTISSLQPEDIATYYCQQGQTYPYTFGQGTKLEIKDKTHTRTVAAPSVFIFPPSDEQLKSGTASVVCLLNNFYPREAKVQWKVDNALQSGNSQESVTEQDSKDSTYSLSSTLTLSKADYEKHKVYACEVTHQGLSSPVTKSFNRGEC
heavy 1: QVQLVQSGAEVVKPGASVKVSCKASGYTFTSYYIHWVRQAPGQGLEWIGSIYPGNVNTNYAQKFQGRATLTVDTSISTAYMELSRLRSDDTAVYYCTRSHYGLDWNFDVWGKGTTVTVSSDKTHTQVQLVESGGGVVQPGRSLRLSCAASGFTFTKAWMHWVRQAPGKQLEWVAQIKDKSNSYATYYADSVKGRFTISRDDSKNTLYLQMNSLRAEDTAVYYCRGVYYALSPFDYWGQGTLVTVSSDKTHTASTKGPSVFPLAPCSRSTSESTAALGCLVKDYFPEPVTVSWNSGALTSGVHTFPAVLQSSGLYSLSSVVTVPSSSLGTKTYTCNVDHKPSNTKVDKRVESKYGPPCPPCPAPEAAGGPSVFLFPPKPKDTLMISRTPEVTCVVVDVSQEDPEVQFNWYVDGVEVHNAKTKPREEQFNSTYRVVSVLTVLHQDWLNGKEYKCKVSNKGLPSSIEKTISKAKGQPREPQVCTLPPSQEEMTKNQVSLSCAVKGFYPSDIAVEWESNGQPENNYKTTPPVLDSDGSFFLVSKLTVDKSRWQEGNVFSCSVMHEALHNHYTQKSLSLSLG
heavy 2: QVQLQQSGPELVRPGTSVKVSCKASGYAFTTYLVEWIKQRPGQGLEWIGVINPGSGSTNYNEKFKGKATLTVDRSSTTAYMHLSGLTSDDSAVYFCARYAYGYWGQGTTLTVSSASTKGPSVFPLAPCSRSTSESTAALGCLVKDYFPEPVTVSWNSGALTSGVHTFPAVLQSSGLYSLSSVVTVPSSSLGTKTYTCNVDHKPSNTKVDKRVESKYGPPCPPCPAPEAAGGPSVFLFPPKPKDTLMISRTPEVTCVVVDVSQEDPEVQFNWYVDGVEVHNAKTKPREEQFNSTYRVVSVLTVLHQDWLNGKEYKCKVSNKGLPSSIEKTISKAKGQPREPQVYTLPPCQEEMTKNQVSLWCLVKGFYPSDIAVEWESNGQPENNYKTTPPVLDSDGSFFLYSKLTVDKSRWQEGNVFSCSVMHEALHNHYTQKSLSLSLG
light 2: DIVMTQSQKFMSASVGDRVSITCKASQNVGTAVAWYQQQPGHSPKQLIYSASNRYTGVPDRFTGSGAGTDFTLTISNIQSEDLADYFCQQYSTYPFTFGSGTKLEIKRTVAAPSVFIFPPSDEQLKSGTASVVCLLNNFYPREAKVQWKVDNALQSGNSQESVTEQDSKDSTYSLSSTLTLSKADYEKHKVYACEVTHQGLSSPVTKSFNRGEC
notes: Trispecific antibody; also called BP # 6′
B3: AntiCD38_hyb_5739 (antibody, V domains shown)
VH: QVQLQQSGPELVRPGTSVKVSCKASGYAFTTYLVEWIKQRPGQGLEWIGVINPGSGSTNYNEKFKGKATLTVDRSSTTAYMHLSGLTSDDSAVYFCARYAYGYWGQGTTLTVSS
VL: DIVMTQSQKFMSASVGDRVSITCKASQNVGTAVAWYQQQPGHSPKQLIYSASNRYTGVPDRFTGSGAGTDFTLTISNIQSEDLADYFCQQYSTYPFTFGSGTKLEIK
B4: AntiCD38_hyb_6284 (antibody, V domains shown)
VH: QVQLLQSGAELVRPGVSVKISCTGSGYSFTNYAVHWVKQSHVKSLEWIGVISPYYGDTTYNQKFTGKATMTVDKSSSTAYMELARLTSEDSAIYFCARRFEGFYYSMDYWGQGTSVTVSS
VL: DVVMIQTPLSLPVSLGDQASISCRPSQSLVHSNGNTYLNWYLQRPGQSPKLLIYKVSKRFSGVPDRFSGSGSGTDFTLKISRVEAEDLGVYLCSQSTHVPLTFGSGTQLEIK
B5: AntiCD38_hhy_992 (antibody, V domains shown)
VH: QVQLVQSGAEVKKPGASVKVSCKVSGYTLTEFSIHWVRQAPGQGLEWMGGFDPEDGETIYAQKFQGRVIMTEDTSTDTAYMEMNSLRSEDTAIYYCTTGRFFDWFWGQGTLVTVSS
VL: EIILTQSPAILSLSPGERATLSCRASQSVISRFLSWYQVKPGLAPRLLIYGASTRATGIPVRFSGSGSGTDFSLTISSLQPEDCAVYYCQQDSNLPITFGQGTRLEIK
B6: AntiCD38_hhy_1195 (antibody, V domains shown)
VH: QVQLVESGGGVVQPGRSLRLSCAASGFTFSSYGMYWVRQAPGKGLEWVAVIWYDGSNKYYADSVKGRFTISRDNSKNTLYLQMNSLRAEDTAVYHCARDPGLRYFDGGMDVWGQGTTVTVSS
VL: DIQLTQSPSFLSASVGDRVTITCRASQGISSYLAWYQQKPGKAPKLLIFAASTLHSGVPSRFSGSGSGTEFTLTISSLQPEDFATYYCQQLNSFPYTFGQGTKLEIK

Tests used:
[1] = biological target: T2, human CD38 on tumor cell lines NCI-H929 (CD38+/CD28+) and OCI-LY19 (CD38+/CD28-) (human, UniProt P28907 1-300); test: cell-based or functional assay
[2] = biological target: T2, human CD38 on tumor cell lines NCI-H929 …; test: cell-based or functional assay; remark: listed apart in the source
[3] = biological target: T3, Human CD28 (human, UniProt P10747 19-152, limits assumed); test: ELISA, antigen-coated plate
T3 construct: also called hCD28
Procedure: (§1) Binding affinities to each target antigen by the CD38/CD28×CD3 T cell engagers were measured by ELISA. Briefly, each antigen was used to coat the 96-well Immuno Plate (Thermo Fisher Scientific) overnight at 4° C. using 200 ng/well in PBS (pH7.4) of each antigen. The coated plate was blocked using 5% skim milk+2% BSA in PBS for one hour at RT, followed by washing with PBS+0.25% Tween 20 three times (Aqua Max 400, Molecular Devices). Serial dilution of antibodies (trispecific and control Abs) were prepared and added onto the ELISA plates (100 μl/well in duplicate), incubated at room temperature (RT) for one hour, followed by washing 5 times with PBS+0.25% Tween 20. […] The reaction was terminated by adding 50 μl 1M H₂SO₄, and OD450 was measured using SpectraMax M5 (Molecular Devices) and analyzed using SoftMax Pro6.3 software (Molecular Devices). The final data was transferred to GraphPad Prism software (GraphPad Software, CA, USA), and plotted. EC50 was calculated using the same software.
(§2) The binding affinities of selected CD38/CD28sup×CD3mid_ENLQ DKTHT IgG4 FALA trispecific antibodies with alternative anti-CD38 binding domains for human CD3, human CD28, human CD38 and cynomolgus monkey CD38 were then determined by ELISA as described above.

[4] = biological target: T4, human CD38 (human, UniProt P28907 43-300, limits assumed); test: ELISA, antigen-coated plate
T4 construct: also called hCD38; huCD38
Procedure: as §1, §2

[5] = biological target: T5, cynomolgus monkey CD38 (cynomolgus monkey, UniProt Q5VAN0 44-301, limits assumed); test: ELISA, antigen-coated plate
T5 construct: also called Cyno CD38; cynoCD38
Procedure: as §1, §2

[6] = biological target: T1, Human CD3; test: ELISA, antigen-coated plate
Procedure: as §1, §2

[7] = biological target: T6, Human CD38-His (human, UniProt P28907 43-300, limits assumed); test: SPR (BIACORE 3000), capture format, 1:1 Langmuir model
T6 construct: Bought antigen; also called human CD38 (SPR antigen); not shown: His tag

[8] = biological target: T4, human CD38; test: FACS
[9] = biological target: T5, cynomolgus monkey CD38; test: FACS
[10] = biological target: T4, human CD38; test: ELISA
[11] = biological target: T5, cynomolgus monkey CD38; test: ELISA
[12] = biological target: T4, human CD38; test: SPR
[13] = biological target: T5, cynomolgus monkey CD38; test: SPR

Binder	EC50 of in vitro killing of NCI-H929 (CD38+/CD28+) cells, With Dara [1] [pM]	EC50 of in vitro killing of NCI-H929 (CD38+/CD28+) cells, With human IgG1 [1] [pM]	EC50 of in vitro killing of OCI-LY19 (CD38+/CD28-) cells, With Dara [2] [pM]	EC50 of in vitro killing of OCI-LY19 (CD38+/CD28-) cells, With human IgG1 [2] [pM]	EC50 [3] [pM]	EC50 [4] [pM]	EC50 [5] [pM]	EC50 [6] [pM]	Kd [7] [pM]	koff [7] [s⁻¹]	kon [7] [M⁻¹ s⁻¹]	EC50 [8] [pM]	EC50 [9] [pM]	EC50 [10] [pM]	EC50 [11] [pM]	Kd [12] [pM]	Kd [13] [pM]
B1	126	13.4	133	57.3	809	229	912	33600	129	0.000175	1.35e+06						
B2	9.12	2.74	219	61	825	984	1630	10800	5570	0.00546	980000						
B3												300	500	120	90		
B4												400	700	110	130		
B5												100000	288000	90	80	365	6120
B6												38000	15000	1400	860	40000	26000
